Assay results as given in paper PMC10272136, “Molecular mechanisms of Holliday junction branch migration catalyzed by an asymmetric RuvB hexamer” (Nature Communications, 2022).
Where “and” joins values, the source holds several entries; their conditions need not be identical. Identical values can stand only once.

Key:
[1] = molecular target: the molecule itself; assay: cryo-EM structure; sample of RuvA, RuvB and HJ DNA (6:4:1 RuvB:RuvA:HJ DNA); only a RuvA-HJ DNA structure was obtained; C4 symmetry, 4.3 Å
RuvA = molecular target: T1, RuvA (Thermus thermophilus, UniProt Q9F1Q3 1-191); assay: cryo-EM structure; from RuvA-RuvB-HJ sample; RuvA tetramer binds HJ core; 20 mM Tris-HCl pH 7.5, 10 mM MgCl2, 1 mM DTT, 2 mM ATPgS, 30 min at 37 C; gel filtration in 20 mM Tris-HCl, 150 mM NaCl; details: protein: recombinant; tags: N-terminal His tag (pET-28a, NdeI/XhoI); chain copies: 4; four-way junction of 4 strands, 1 copy each
T1 sequence: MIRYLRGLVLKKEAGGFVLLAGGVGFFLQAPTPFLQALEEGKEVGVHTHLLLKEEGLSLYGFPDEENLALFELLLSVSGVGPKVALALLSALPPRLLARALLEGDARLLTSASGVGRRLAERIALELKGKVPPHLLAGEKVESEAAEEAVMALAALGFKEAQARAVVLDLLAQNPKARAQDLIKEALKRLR

RuvB = molecular target: T2, RuvB (Thermus thermophilus, UniProt Q5SL87 1-324); assay: gel filtration; 2 mM ATPgS, 10 mM MgCl2; DNA:RuvB monomer 1:6; 20 mM Tris-HCl pH 7.5, 10 mM MgCl2, 1 mM DTT, 2 mM ATPgS, 30 min at 37 C; gel filtration in 20 mM Tris-HCl, 150 mM NaCl; details: protein: recombinant; tags: N-terminal His tag (pET-28a, NdeI/SalI); chain copies: 6; four-way junction of 4 strands, 1 copy each
T2 sequence: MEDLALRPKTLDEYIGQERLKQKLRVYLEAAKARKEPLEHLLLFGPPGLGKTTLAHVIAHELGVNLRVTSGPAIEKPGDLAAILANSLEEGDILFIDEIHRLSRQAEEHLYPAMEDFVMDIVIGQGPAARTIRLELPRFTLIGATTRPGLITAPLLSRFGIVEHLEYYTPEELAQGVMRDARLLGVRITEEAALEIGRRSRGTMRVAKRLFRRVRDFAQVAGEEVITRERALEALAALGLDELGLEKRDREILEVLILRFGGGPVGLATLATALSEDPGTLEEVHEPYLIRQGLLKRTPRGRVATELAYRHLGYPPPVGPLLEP

[2] = molecular target: the molecule itself; assay: cryo-EM structure; RuvB mixed with annealed HJ DNA at 1:6 (DNA/RuvB monomer) in 20 mM Tris-HCl pH 7.5, 10 mM MgCl2, 1 mM DTT, 2 mM ATP-γ-S, 30 min at 37 °C; complex purified by gel filtration; two maps (hexamer 2.97 Å, C1; dodecamer 3.2 Å, C2)

B1: Thermus thermophilus RuvA (natural protein, UniProt Q9F1Q3 1-191, looked up)
chain: MIRYLRGLVLKKEAGGFVLLAGGVGFFLQAPTPFLQALEEGKEVGVHTHLLLKEEGLSLYGFPDEENLALFELLLSVSGVGPKVALALLSALPPRLLARALLEGDARLLTSASGVGRRLAERIALELKGKVPPHLLAGEKVESEAAEEAVMALAALGFKEAQARAVVLDLLAQNPKARAQDLIKEALKRLR
notes: source: E. coli BL21(DE3) RipL, purified (heat step at 55 °C, Ni-NTA, gel filtration)
- stoichiometry N [1]: 4

B2: HJ DNA (HJ1-HJ4) (structured_DNA)
DNA 1: AGAATCTGCCGAGAGACCGAGCAGAATTCTATGTGTTTACCAAGCGCTG
DNA 2: CAGCGCTTGGTAAACACATAGAATTCTGCTCGGTCTGAGCCGTCTAAGA
DNA 3: TCTTAGACGGCTCACTGGCTGTGGGATCCGAGCTGTCTAGAGACATCGA
DNA 4: TCGATGTCTCTAGACAGCTCGGATCCCACAGCCAGTCTCGGCAGATTCT
- binding result (RuvA): binds
- binding result (RuvB): binds

B3: Thermus thermophilus RuvB (enzyme, UniProt Q5SL87 1-324, looked up)
chain: MEDLALRPKTLDEYIGQERLKQKLRVYLEAAKARKEPLEHLLLFGPPGLGKTTLAHVIAHELGVNLRVTSGPAIEKPGDLAAILANSLEEGDILFIDEIHRLSRQAEEHLYPAMEDFVMDIVIGQGPAARTIRLELPRFTLIGATTRPGLITAPLLSRFGIVEHLEYYTPEELAQGVMRDARLLGVRITEEAALEIGRRSRGTMRVAKRLFRRVRDFAQVAGEEVITRERALEALAALGLDELGLEKRDREILEVLILRFGGGPVGLATLATALSEDPGTLEEVHEPYLIRQGLLKRTPRGRVATELAYRHLGYPPPVGPLLEP
notes: RuvB, Holliday junction branch migration ATPase (AAA+), Thermus thermophilus; printed MW 35,973; Purified RuvB carried endogenous ADP (native mass spectrometry); It forms the hexamer and dodecamer only in the sample with DNA and ATPγS; also called T. thermophilus RuvB; RuvB protomer; source: E. coli BL21(DE3) RipL, purified (heat step at 55 °C, Ni-NTA, Superdex 200 gel filtration)
- stoichiometry N [2]: 6 and 12
